Legend:
[1] = biological target: T1, DR4G111: Human HLA-DQA1*01:02/DQB1*06:02 ECD with insulin peptide INS_1-15 (human); assay: MSD ECL; antigen coated; mAb 5 µg/ml
T1 construct: also called DQB6:02

[2] = biological target: T2, DR4G113: Human HRA-DPA1*03/DPB1*04:01 ECD with NY-ESO peptide NY-ESO_157-169 (human); assay: MSD ECL; antigen coated; mAb 5 µg/ml
T2 construct: also called HLA-DP; DP4:01
T2 MHC II alpha: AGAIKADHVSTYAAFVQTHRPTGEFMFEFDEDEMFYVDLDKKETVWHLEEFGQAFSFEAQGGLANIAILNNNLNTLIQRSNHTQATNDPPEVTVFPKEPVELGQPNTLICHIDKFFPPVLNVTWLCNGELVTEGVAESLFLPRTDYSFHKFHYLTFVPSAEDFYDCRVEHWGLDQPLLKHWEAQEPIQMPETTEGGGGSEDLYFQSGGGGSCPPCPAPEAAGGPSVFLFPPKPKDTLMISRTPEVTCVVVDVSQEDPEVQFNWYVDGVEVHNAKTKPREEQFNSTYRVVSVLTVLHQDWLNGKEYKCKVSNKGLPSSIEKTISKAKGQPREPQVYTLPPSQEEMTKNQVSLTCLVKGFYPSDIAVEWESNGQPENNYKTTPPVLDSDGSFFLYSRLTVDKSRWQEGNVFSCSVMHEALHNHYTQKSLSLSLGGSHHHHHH
T2 MHC II beta: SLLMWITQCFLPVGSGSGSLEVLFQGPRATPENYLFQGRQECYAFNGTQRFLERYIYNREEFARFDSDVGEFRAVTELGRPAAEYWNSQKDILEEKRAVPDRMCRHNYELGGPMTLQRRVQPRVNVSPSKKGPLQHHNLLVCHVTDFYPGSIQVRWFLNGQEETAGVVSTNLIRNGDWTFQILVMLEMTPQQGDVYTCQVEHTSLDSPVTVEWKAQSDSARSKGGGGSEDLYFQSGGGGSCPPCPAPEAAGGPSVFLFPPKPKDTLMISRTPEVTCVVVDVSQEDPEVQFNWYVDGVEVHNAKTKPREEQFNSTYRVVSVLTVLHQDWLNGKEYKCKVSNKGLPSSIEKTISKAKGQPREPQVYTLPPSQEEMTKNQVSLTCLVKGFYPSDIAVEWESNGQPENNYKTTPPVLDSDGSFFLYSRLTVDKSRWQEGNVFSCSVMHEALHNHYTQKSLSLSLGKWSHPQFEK

[3] = biological target: DR4G90: Human HLA-DRA1*01:02/DRB1*04:01 ECD with collagen II peptide CII_1236-1249 (human); assay: MSD ECL; antigen coated; mAb 0.2 µg/ml
[4] = biological target: T3, DR4G99: Human HLA-DRA1*01:02/DRB1*01:01 ECD with collagen peptide CII_1236-1249 (human); assay: MSD ECL; antigen coated; mAb 0.2 µg/ml
T3 construct: also called DRG99

[5] = biological target: T1, DR4G111: Human …; assay: MSD ECL; antigen coated
[6] = biological target: T2, DR4G113: Human HRA-DPA1*03/DPB1*04:01 …; assay: MSD ECL; antigen coated

B1: DR4B22 (antibody, human IgG2, kappa, V domains shown)
VH: EVQLLESGGGLVQPGGSLRLSCAASGFTFSSYAMNWVRQAPGKGLEWVSAISGSGGYTNYADSVKGRFTISRDNSKNTLYLQMNSLRAEDTAVYYCARDGGYYRYVYRYPGDYAFGYWGQGTLVTVSS
VL: EIVLTQSPATLSLSPGERATLSCRASQSVSSYLAWYQQKPGQAPRLLIYDASNRATGIPARFSGSGSGTDFTLTISSLEPEDFAVYYCQQRSNWPLTFGQGTKVEIKR
notes: also called VH DR4H16 / VL PH9L3
- ECL signal [1]: 16300 ECL
- ECL signal [2]: 2180 ECL
- ECL signal [3]: 1.1e+06 ECL
- ECL signal [4]: 1.03e+06 ECL
- binding result [5]: no binding (tested: 5 µg/ml)
- binding result [6]: no binding (tested: 5 µg/ml)

B2: DR4B70 (antibody, human IgG2, kappa, V domains shown)
VH: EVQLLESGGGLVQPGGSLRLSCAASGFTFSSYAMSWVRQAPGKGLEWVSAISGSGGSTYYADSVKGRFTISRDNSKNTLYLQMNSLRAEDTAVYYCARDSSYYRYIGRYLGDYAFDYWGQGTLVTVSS
VL: B1 VL
notes: also called VH DR4H29 / VL PH9L3
- ECL signal [1]: 3220 ECL
- ECL signal [2]: 1270 ECL
- ECL signal [3]: 1.13e+06 ECL
- ECL signal [4]: 1.08e+06 ECL
- binding result [5]: no binding (tested: 5 µg/ml)
- binding result [6]: no binding (tested: 5 µg/ml)

B3: DR4B38 (antibody, human IgG2, kappa, V domains shown)
VH: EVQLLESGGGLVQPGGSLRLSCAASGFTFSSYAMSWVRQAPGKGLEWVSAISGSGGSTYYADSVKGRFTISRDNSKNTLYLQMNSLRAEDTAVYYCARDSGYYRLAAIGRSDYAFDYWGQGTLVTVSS
VL: B1 VL
notes: also called VH DR4H56 / VL PH9L3
- ECL signal [1]: 100 ECL
- ECL signal [2]: 148 ECL
- ECL signal [3]: 1.24e+06 ECL
- ECL signal [4]: 1.21e+06 ECL
- binding result [5]: no binding (tested: 5 µg/ml)
- binding result [6]: no binding (tested: 5 µg/ml)

From patent US20180355043A1 (Janssen / Centocor, published 2018)
